The values that follow come from patent publication US20210338809A1, “Immune Tolerance-Inducing Agent and Therapeutic or Prophylactic Agent for Allergic Disorder” (Tokushima University, priority 2018, published 2021).

For data set [1], the system named is OVA transdermally sensitized model mice. Briefly: Anaphylaxis-eliciting test using aspirin pre-administration and oral OVA challenge, rectal temperature monitoring. Format: in vivo, mouse. The following applies: for change in rectal temperature: from 30 minutes after challenge. The protocol: Balb/c mice (6-7 weeks old, female) were subjected to hair removal on the back of the head with hair clippers, then, 100 μL of aqueous SDS solution (4%) was uniformly applied to damage their skin barrier function, and after 10 minutes, 100 μL of an aqueous solution of ovomucoid (OVM) (manufactured by NACALAI TESQUE, INC.) (10 mg/mL), 100 μL of an aqueous solution of ovalbumin (OVA) (manufactured by Sigma-Aldrich) (10 mg/mL), or 100 μL of an aqueous solution of casein (manufactured by Sigma-Aldrich) (10 mg/mL) was uniformly applied. Such allergen applications were carried out a total of 10 times (for 2 weeks with a frequency of 5 times/week) to generate a transdermally sensitized food allergic mouse model against OVM, OVA, or casein. The mice 10-14 days after transdermal sensitization were subjected to the following experiments.
In accordance with the schedule shown in FIG. 1, the present inventors performed two types of loadings of “ASA pre-administration” and “allergen oral administration” in combination on the allergen transdermally sensitized mouse model of the present invention to examine whether anaphylaxis could be reliably elicited. Experimental procedures and results are shown in the following (1) to (4).
The OVA transdermally sensitized model mice (body weight of about 20 g) of the present invention were fasted for 2 hours or more and then oral administration of ASA (manufactured by Sigma-Aldrich) dissolved in 50% ethanol (1.25 mg/100 μL/mouse) was performed. Also, as a control, a group was provided to which oral pre-administration of 50% ethanol alone without ASA was performed.
Thirty minutes after the pre-administration of ASA or ethanol, an aqueous OVA solution (manufactured by Sigma-Aldrich) was orally challenged (20 mg/100 μL/mouse). In addition, as a control, a group was provided to which only water (without OVA) was orally administered.
In this experiment, rectal temperatures were measured at 10-minute intervals starting from 10 minutes before OVA administration and for 90 to 120 minutes after administration. Then, the temperature change after OVA administration was monitored using the temperature 10 minutes before OVA administration as a reference value. It was determined that the mouse developed anaphylaxis when the rectal temperature decreased by 1° C. or more relative to the reference value.

Data set [2] relates to casein transdermally sensitized mice. Briefly: Anaphylaxis-eliciting test by intraperitoneal challenge with casein after prophylactic immunization and casein transdermal sensitization. The following applies: subcutaneous injection 1 μg casein twice before sensitization. Format: in vivo, mouse.
Data set [3] deals with transdermally sensitized OVM allergic mouse model. Briefly: Anaphylaxis-eliciting test with trace amount of OVM alone. The class given is in vivo. The protocol:
Specifically, the transdermally sensitized OVM allergic mouse model (body weight of about 20 g, n=10) was subjected to fasting and ASA administration before the challenge test in accordance with the procedures of Example 2. Then an oral OVM challenge test was performed. The oral OVM challenge test was performed by orally challenging with 0.01 μg of OVM once and examining change in rectal temperature for 60 minutes.

Take `CC(=O)Oc1ccccc1C(=O)O` [ASA/50% ethanol, acetylsalicylic acid, reference compound]: in data set [1], the “change in rectal temperature” value is on record as “tendency of increase”.
With casein, the “rectal temperature decrease in the other four cases” value in data set [2] is listed as “worsening tendency”. Moreover, the “improvement of rectal temperature decrease after intraperitoneal challenge test” value in data set [2] (n=5) is recorded as “only one case”.

B1: ovalbumin (protein, UniProt P01012 2-386, looked up)
Ovalbumin: GSIGAASMEFCFDVFKELKVHHANENIFYCPIAIMSALAMVYLGAKDSTRTQINKVVRFDKLPGFGDSIEAQCGTSVNVHSSLRDILNQITKPNDVYSFSLASRLYAEERYPILPEYLQCVKELYRGGLEPINFQTAADQARELINSWVESQTNGIIRNVLQPSSVDSQTAMVLVNAIVFKGLWEKAFKDEDTQAMPFRVTEQESKPVQMMYQIGLFRVASMASEKMKILELPFASGTMSMLVLLPDEVSGLEQLESIINFEKLTEWTSSNVMEERKIKVYLPRMKMEEKYNLTSVLMAMGITDVFSSSANLSGISSAESLKISQAVHAAHAEINEAGREVVGSAEAGVDAASVSEEFRADHPFLFCIKHIATNAVLFFGRCVSP
notes: ovalbumin, egg allergen
Turning to B1, in data set [1] (10 minutes after oral OVA challenge), the “decrease in rectal temperature” value was “around 1.1 °C”. Besides, the elicitation of anaphylaxis result in data set [1] (oral OVA challenge 20 mg/mouse) is listed as “extremely mild”.

B2: 50% ethanol+OVA: 50% ethanol alone pre-administered, followed by oral OVA challenge (protein, UniProt P01012 2-386, looked up)
Ovalbumin: B1 Ovalbumin
modifications: after 50% ethanol pretreatment
For B2, the “change in rectal temperature” value in data set [1] is on record as “increase”.

B3: ovomucoid (protein, UniProt P01005 25-210, looked up)
Ovomucoid: AEVDCSRFPNATDKEGKDVLVCNKDLRPICGTDGVTYTNDCLLCAYSIEFGTNISKEHDGECKETVPMNCSSYANTTSEDGKVMVLCNRAFNPVCGTDGVTYDNECLLCAHKVEQGASVDKRHDGGCRKELAAVSVDCSEYPKPDCTAEDRPLCGSDNKTYGNKCNFCNAVVESNGTLTLSHFGKC
In the case of B3, in data set [3] (0.01 μg OVM alone orally), the induction of anaphylaxis result was “does not induce anaphylaxis”. Further, the “rectal temperature after administration” value in data set [3] (0.01 μg OVM alone orally once, 60 minutes, n=10, ASA pre-administered) is given as “did not decrease”.
